How the values were obtained:
[1] = systemically administered; cited from earlier work
[2] = neoplastic carcinoma patients; cited from earlier work
[3] = type: physicochemical
From the text: Based on the experimental data on CPT release from PHF-CPT, the action of the conjugate after intrathecal administration will be localized in the target compartment (leptomeningeal tissues contacting with CSF). The kinetics of CPT release includes two phases: (1) non-enzymatic release of a highly hydrophobic prodrug camptothecin succinimidoglycinate (CPT-SI), and (2) release of active CPT from CPT-SI (Scheme 6). […] Thus, it is expected that CPT-SI will be deposited in the leptomeningeal space and will redistribute only locally along cell membranes and other hydrophobic compartments. […] A similar distribution pattern in the meningeal compartment is expected, with CPT-SI penetration from CSF into the cancer cell formations through several cell layers.

[4] = type: in vitro ADME; conditions: rat, plasma
Protocol: The mechanism of the second stage hydrolysis in vivo, which results in the active CPT release, may include spontaneous or enzymatic hydrolysis as well as, e.g., aminolysis. In vitro, the half-life of (N-succinamido)-glycyl linkage in the CPT prodrug (VI) in rat plasma was over 20 hours.

[5] = humans, cited from earlier work
[6] = PET imaging of 124I-labeled human recombinant enzymes after IV and IT administration; type: in vivo, rats
Protocol: Imaging was performed using MicroPET P4. Spatial resolution (full width at half maximum, FWHM) was studied using a line ^124I source (Ø=0.19 mm) in water. A 51×127 mm cylindrical phantom was used to evaluate the count-rate performance and coincidence detection. Studies in rats and cynomolgus monkeys were carried out using five human recombinant enzymes. The proteins were labeled with ^124I, at up to 5 mCi/mg.
Next, three human recombinant enzymes, idursulfase, arylsulfatase A, and sulfamidase were labeled with ^124I and administered at 1 and 10 mg/kg via two routes, IV and IT. Dynamic imaging data and multiple static images were acquired over 8 days, and processed to determine the principal PK parameters. FITC labeled sulfamidase was also utilized to investigate brain cryosections by photoimaging.

In the case of `CN(Cc1cnc2nc(N)nc(N)c2n1)c1ccc(C(=O)N[C@@H](CCC(=O)O)C(=O)O)cc1` [methotrexate], the “CSF level relative to the systemic level” value [1] is given as 1.7%.

For `CC[C@@]1(O)C(=O)OCc2c1cc1n(c2=O)Cc2cc3c(CN(C)C)c(O)ccc3nc2-1` [topotecan], the clinical outcome [2] is given as “not promising”.

With “camptothecin succinimidoglycinate [CPT-SI]” the solubility in water [3] was “practically insoluble in water” and the “half-life of (N-succinamido)-glycyl linkage” value [4] was “over 20 hours”.

In the case of “indium complex of diethylenetriaminepentaacetic acid [In-DTPA]”, the “time to reach brain ventricles” value ([5]; after intralumbar injection) is given as “ca. 5 hours” and the “half-life in CSF” value [5] is given as 13.5 ± 4.5 h.

B1: idursulfase: human recombinant enzyme labeled with 124I (protein, UniProt P22304 34-455; P22304 456-550, looked up)
Iduronate 2-sulfatase 42 kDa …: TDALNVLLIIVDDLRPSLGCYGDKLVRSPNIDQLASHSLLFQNAFAQQAVCAPSRVSFLTGRRPDTTRLYDFNSYWRVHAGNFSTIPQYFKENGYVTMSVGKVFHPGISSNHTDDSPYSWSFPPYHPSSEKYENTKTCRGPDGELHANLLCPVDVLDVPEGTLPDKQSTEQAIQLLEKMKTSASPFFLAVGYHKPHIPFRYPKEFQKLYPLENITLAPDPEVPDGLPPVAYNPWMDIRQREDVQALNISVPYGPIPVDFQRKIRQSYFASVSYLDTQVGRLLSALDDLQLANSTIIAFTSDHGWALGEHGEWAKYSNFDVATHVPLIFYVPGRTASLPEAGEKLFPYLDPFDSASQLMEPGRQSMDLVELVSLFPTLAGLAGLQVPPRCPVPSFHVELCREGKNLLKHFRFRDLEEDPYLPG
Iduronate 2-sulfatase 14 kDa …: NPRELIAYSQYPRPSDIPQWNSDKPSLKDIKIMGYSIRTIDYRYTVWVGFNPDEFLANFSDIHAGELYFVDSDPLQDHNMYNDSQGGDLFQLLMP
modifications: 124I label
notes: human recombinant enzyme labeled with 124I
In the case of B1, the “half-life of clearance from both the brain and spinal cord” value ([6]; rat, in vivo) is reported as “ca. 7 h”, the “initial label content in the brain region” value (“initial label content” for short) ([6]; rat, in vivo) is reported as 45 % of the injected dose/g and the “initial label content” value ([6]; rat, in vivo, iv) is reported as 0.20 % of the injected dose/g.

B2: arylsulfatase A: human recombinant enzyme labeled with 124I (protein, UniProt P15289 19-507, looked up)
Arylsulfatase A: RPPNIVLIFADDLGYGDLGCYGHPSSTTPNLDQLAAGGLRFTDFYVPVSLCTPSRAALLTGRLPVRMGMYPGVLVPSSRGGLPLEEVTVAEVLAARGYLTGMAGKWHLGVGPEGAFLPPHQGFHRFLGIPYSHDQGPCQNLTCFPPATPCDGGCDQGLVPIPLLANLSVEAQPPWLPGLEARYMAFAHDLMADAQRQDRPFFLYYASHHTHYPQFSGQSFAERSGRGPFGDSLMELDAAVGTLMTAIGDLGLLEETLVIFTADNGPETMRMSRGGCSGLLRCGKGTTYEGGVREPALAFWPGHIAPGVTHELASSLDLLPTLAALAGAPLPNVTLDGFDLSPLLLGTGKSPRQSLFFYPSYPDEVRGVFAVRTGKYKAHFFTQGSAHSDTTADPACHASSSLTAHEPPLLYDLSKDPGENYNLLGGVAGATPEVLQALKQLQLLKAQLDAAVTFGPSQVARGEDPALQICCHPGCTPRPACCHCPDPHA
modifications: 124I label
notes: as for B1
With B2 the “initial label content” value ([6]; rat, in vivo) was 70 % of the injected dose/g and the “initial label content” value ([6]; rat, in vivo, iv) was 0.15 % of the injected dose/g.

B3: sulfamidase: human recombinant enzyme labeled with 124I (protein, UniProt P51688 21-502, looked up)
N-sulphoglucosamine …: RPRNALLLLADDGGFESGAYNNSAIATPHLDALARRSLLFRNAFTSVSSCSPSRASLLTGLPQHQNGMYGLHQDVHHFNSFDKVRSLPLLLSQAGVRTGIIGKKHVGPETVYPFDFAYTEENGSVLQVGRNITRIKLLVRKFLQTQDDRPFFLYVAFHDPHRCGHSQPQYGTFCEKFGNGESGMGRIPDWTPQAYDPLDVLVPYFVPNTPAARADLAAQYTTVGRMDQGVGLVLQELRDAGVLNDTLVIFTSDNGIPFPSGRTNLYWPGTAEPLLVSSPEHPKRWGQVSEAYVSLLDLTPTILDWFSIPYPSYAIFGSKTIHLTGRSLLPALEAEPLWATVFGSQSHHEVTMSYPMRSVQHRHFRLVHNLNFKMPFPIDQDFYVSPTFQDLLNRTTAGQPTGWYKDLRHYYYRARWELYDRSRDPHETQNLATDPRFAQLLEMLRDQLAKWQWETHDPWVCAPDGVLEEKLSPQCQPLHNEL
modifications: 124I label
notes: as for B1
With B3 the “initial label content” value ([6]; after IT administration, 124I label, PET) was 35 % of the injected dose/g and the “initial label content” value ([6]; after IV administration, 124I label, PET) was 0.05 % of the injected dose/g.

Source: patent US20120171118A1, “TREATMENT OF MENINGEAL AND NEURAL DISEASES” (THE GENERAL HOSPITAL CORPORATION, priority 2009, published 2012)
